Data as given in article PMC10397247.
Each block holds one binder with its values, some of them ahead of it.

Legend:
4H464-AA = target: T1, 4H464-AA; test: two-hybrid library CCmax; settings: mean of both orientations;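 further: natural log of median RNA to DNA barcode read ratio; higher means stronger binding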
T1 chain: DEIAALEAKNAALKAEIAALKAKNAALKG

4H3414-AA = target: T2, 4H3414-AA; test: two-hybrid library CCmax; settings: mean of both orientations;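 further: natural log of median RNA to DNA barcode read ratio; higher means stronger binding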
T2 chain: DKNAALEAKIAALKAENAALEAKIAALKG

4H2961-AA = target: T3, 4H2961-AA; test: two-hybrid library CCmax;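 further: natural log of median RNA to DNA barcode read ratio; higher means stronger binding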
T3 chain: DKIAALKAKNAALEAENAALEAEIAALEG

4H1913-AA = target: T4, 4H1913-AA; test: two-hybrid library CCmax; settings: mean of both orientations;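 further: natural log of median RNA to DNA barcode read ratio; higher means stronger binding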
T4 chain: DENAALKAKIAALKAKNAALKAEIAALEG

4H3049-AA = target: T5, 4H3049-AA; test: two-hybrid library CCmax; settings: mean of both orientations
T5 chain: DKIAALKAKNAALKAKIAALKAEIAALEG

4H1454-AA = target: T6, 4H1454-AA; test: two-hybrid library CCmax; settings: mean of both orientations
T6 chain: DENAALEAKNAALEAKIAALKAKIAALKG

4H3782-AA = target: T7, 4H3782-AA; test: two-hybrid library CCmax; settings: mean of both orientations
T7 chain: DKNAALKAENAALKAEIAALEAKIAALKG

4H2903-AA = target: T8, 4H2903-AA; test: two-hybrid library CCmax; settings: mean of both orientations
T8 chain: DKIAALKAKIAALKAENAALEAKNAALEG

4H2580-AA = target: T9, 4H2580-AA; test: two-hybrid library CCmax; settings: mean of both orientations
T9 chain: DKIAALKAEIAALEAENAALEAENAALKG

4H3969-AA = target: T10, 4H3969-AA; test: two-hybrid library CCmax; settings: mean of both orientations
T10 chain: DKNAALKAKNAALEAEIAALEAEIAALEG

4H3629-AA = target: T11, 4H3629-AA; test: two-hybrid library CCmax; settings: mean of both orientations
T11 chain: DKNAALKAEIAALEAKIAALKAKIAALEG

4H1360-AA = target: T12, 4H1360-AA; test: two-hybrid library CCmax; settings: mean of both orientations
T12 chain: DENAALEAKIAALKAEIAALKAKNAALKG

4H341-AA = target: T13, 4H341-AA; test: two-hybrid library CCmax; settings: mean of both orientations
T13 chain: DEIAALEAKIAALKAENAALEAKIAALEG

4H3939-AA = target: T14, 4H3939-AA; test: two-hybrid library CCmax; settings: mean of both orientations
T14 chain: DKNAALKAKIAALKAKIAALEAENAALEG

4H63-AA = target: T15, 4H63-AA; test: two-hybrid library CCmax; settings: mean of both orientations
T15 chain: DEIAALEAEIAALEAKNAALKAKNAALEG

4H483-AA = target: T16, 4H483-AA; test: two-hybrid library CCmax; settings: mean of both orientations
T16 chain: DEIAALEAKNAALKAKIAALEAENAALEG

4H130-AA = target: T17, 4H130-AA; test: two-hybrid library CCmax
T17 chain: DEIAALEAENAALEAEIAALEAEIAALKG

4H1349-AA = target: T18, 4H1349-AA; test: two-hybrid library CCmax; settings: mean of both orientations
T18 chain: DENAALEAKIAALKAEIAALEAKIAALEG

4H2621-AA = target: T19, 4H2621-AA; test: two-hybrid library CCmax; settings: mean of both orientations
T19 chain: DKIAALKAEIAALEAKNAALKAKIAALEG

4H2728-AA = target: T20, 4H2728-AA; test: two-hybrid library CCmax; settings: mean of both orientations
T20 chain: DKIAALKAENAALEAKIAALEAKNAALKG

4H3129-AA = target: T21, 4H3129-AA; test: two-hybrid library CCmax; settings: mean of both orientations
T21 chain: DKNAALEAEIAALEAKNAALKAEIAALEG

4H446-AA = target: T22, 4H446-AA; test: two-hybrid library CCmax; settings: mean of both orientations
T22 chain: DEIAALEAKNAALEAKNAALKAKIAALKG

4H380-AA = target: T23, 4H380-AA; test: two-hybrid library CCmax; settings: mean of both orientations
T23 chain: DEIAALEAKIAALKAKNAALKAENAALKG

4H2699-AA = target: T24, 4H2699-AA; test: two-hybrid library CCmax; settings: mean of both orientations
T24 chain: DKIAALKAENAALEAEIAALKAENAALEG

4H249-AA = target: T25, 4H249-AA; test: two-hybrid library CCmax; settings: mean of both orientations
T25 chain: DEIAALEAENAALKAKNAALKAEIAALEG

4H2774-AA = target: T26, 4H2774-AA; test: two-hybrid library CCmax; settings: mean of both orientations
T26 chain: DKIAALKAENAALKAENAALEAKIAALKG

4H1558-AA = target: T27, 4H1558-AA; test: two-hybrid library CCmax; settings: mean of both orientations
T27 chain: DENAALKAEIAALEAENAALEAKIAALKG

4H3595-AA = target: T28, 4H3595-AA; test: two-hybrid library CCmax; settings: mean of both orientations
T28 chain: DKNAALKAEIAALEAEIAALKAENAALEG

P2-AA = target: T29, P2-AA; test: two-hybrid library CCmax; settings: mean of both orientations
T29 chain: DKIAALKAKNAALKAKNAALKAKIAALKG

P2-AA-1HAA-R = target: T30, P2-AA-1HAA-R; test: two-hybrid library CCmax; settings: mean of both orientations
T30 chain: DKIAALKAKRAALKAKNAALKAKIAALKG

P2-AA-1HAA-T = target: T31, P2-AA-1HAA-T; test: two-hybrid library CCmax; settings: mean of both orientations
T31 chain: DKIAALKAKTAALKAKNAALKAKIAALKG

P2-AA-1HAA-K = target: T32, P2-AA-1HAA-K; test: two-hybrid library CCmax; settings: mean of both orientations
T32 chain: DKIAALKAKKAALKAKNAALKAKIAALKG

P2-AA-1HAA-S = target: T33, P2-AA-1HAA-S; test: two-hybrid library CCmax; settings: mean of both orientations
T33 chain: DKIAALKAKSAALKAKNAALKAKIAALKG

P2-AA-1HAA-E = target: T34, P2-AA-1HAA-E; test: two-hybrid library CCmax; settings: mean of both orientations
T34 chain: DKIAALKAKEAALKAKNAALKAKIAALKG

P8A-bA = target: T35, P8A-bA; test: two-hybrid library CCNG1
T35 chain: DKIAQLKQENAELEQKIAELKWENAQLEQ

P3A-bA = target: T36, P3A-bA; test: two-hybrid library CCNG1
T36 chain: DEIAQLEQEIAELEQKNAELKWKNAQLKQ

P11A-bA = target: T37, P11A-bA; test: two-hybrid library CCNG1
T37 chain: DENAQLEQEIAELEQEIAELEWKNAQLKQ

P4A-bA = target: T38, P4A-bA; test: two-hybrid library CCNG1
T38 chain: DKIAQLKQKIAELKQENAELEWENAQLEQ

P9A-bA = target: T39, P9A-bA; test: two-hybrid library CCNG1
T39 chain: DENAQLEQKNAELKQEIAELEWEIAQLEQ

P2A-bA = target: T40, P2A-bA; test: two-hybrid library CCNG1
T40 chain: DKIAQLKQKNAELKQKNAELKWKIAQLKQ

P6A-bA = target: T41, P6A-bA; test: two-hybrid library CCNG1
T41 chain: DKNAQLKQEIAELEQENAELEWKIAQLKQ

P12A-bA = target: T42, P12A-bA; test: two-hybrid library CCNG1
T42 chain: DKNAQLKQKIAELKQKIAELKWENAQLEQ

P5A-bA = target: T43, P5A-bA; test: two-hybrid library CCNG1
T43 chain: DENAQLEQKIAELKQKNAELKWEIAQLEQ

P7A-bA = target: T44, P7A-bA; test: two-hybrid library CCNG1
T44 chain: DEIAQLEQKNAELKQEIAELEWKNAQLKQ

P1A-bA = target: T45, P1A-bA; test: two-hybrid library CCNG1
T45 chain: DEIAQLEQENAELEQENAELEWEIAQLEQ

- interaction score (4H464-AA): 1.95
- interaction score (4H3414-AA): 1
- interaction score (4H2961-AA): -0.589
- interaction score (4H1913-AA): 1.08
- interaction score (4H3049-AA): 1.67
- interaction score (4H1454-AA): 1.52
- interaction score (4H3782-AA): 1.3
- interaction score (4H2903-AA): -1.15
- interaction score (4H2580-AA): -1.46
- interaction score (4H3969-AA): -0.404
- interaction score (4H3629-AA): 0.896
- interaction score (4H1360-AA): 1.22
- interaction score (4H341-AA): 0.154
- interaction score (4H3939-AA): 1.29
- interaction score (4H63-AA): -1.29
- interaction score (4H483-AA): 0.0918
- interaction score (4H130-AA): 1.11
- interaction score (4H1349-AA): -0.443
- interaction score (4H2621-AA): 0.962
- interaction score (4H2728-AA): 0.54
- interaction score (4H3129-AA): -0.746
- interaction score (4H446-AA): 1.05
- interaction score (4H380-AA): -0.0955
- interaction score (4H2699-AA): -0.46
- interaction score (4H249-AA): 1.18
- interaction score (4H2774-AA): 0.9
- interaction score (4H1558-AA): -0.952
- interaction score (4H3595-AA): 0.698
Binder: DEIAALEAENAALEAEIAALEAEIAALKG [4H130-AA]

- interaction score (P2-AA): 1.82
- interaction score (P2-AA-1HAA-R): 1.9
- interaction score (P2-AA-1HAA-T): 1.66
- interaction score (P2-AA-1HAA-K): 1.57
- interaction score (P2-AA-1HAA-S): 1.57
- interaction score (P2-AA-1HAA-E): 0.691
Binder: DEIAALEAEEAALEAENAALEAEIAALEG [P1-AA-1HAA-E]

- interaction score (P8A-bA): -0.166
- interaction score (P3A-bA): -0.656
- interaction score (P11A-bA): -1.39
- interaction score (P4A-bA): 1.83
- interaction score (P9A-bA): -0.585
- interaction score (P2A-bA): 1.07
- interaction score (P6A-bA): 0.118
- interaction score (P12A-bA): 1.91
- interaction score (P5A-bA): 0.849
- interaction score (P7A-bA): -1.28
- interaction score (P1A-bA): 0.307
Binder: DENAQLEQEIAELEQEIAELEWKNAQLKQ [P11A-bA]
